Each block holds one substance with its values, some of them ahead of it.
Legend:
[1] = target: human CTLA4-human CD59 chimeric molecule with a human CD59 leader sequence and an (AS)3 linker (human); experiment: flow cytometry, PAEC HT 48-hCCl (low hCTLA4-hCD59); mean ± SE, n=4
[2] = target: human CTLA4-human CD59 chimeric molecule with a human CD59 leader sequence and an (AS)3 linker (human); experiment: flow cytometry, PAEC Control-hCCm (pig #51, medium hCTLA4-hCD59); mean ± SE, n=4
[3] = target: human CTLA4-human CD59 chimeric molecule with a human CD59 leader sequence and an (AS)3 linker (human); experiment: flow cytometry, PAEC Control-hCCh (pig #51, high hCTLA4-hCD59); mean ± SE, n=4
[4] = target: human CTLA4-human CD59 chimeric molecule with a human CD59 leader sequence and an (AS)3 linker (human); experiment: flow cytometry, PAEC HT 49-hCCm (medium hCTLA4-hCD59); mean ± SE, n=4
[5] = target: porcine CD86 (porcine); experiment: cell-based or functional assay
[6] = target: human CD28 (human) (UniProt P10747); experiment: cell-based or functional assay
UniProt P10747, sequence (P10747 19-220): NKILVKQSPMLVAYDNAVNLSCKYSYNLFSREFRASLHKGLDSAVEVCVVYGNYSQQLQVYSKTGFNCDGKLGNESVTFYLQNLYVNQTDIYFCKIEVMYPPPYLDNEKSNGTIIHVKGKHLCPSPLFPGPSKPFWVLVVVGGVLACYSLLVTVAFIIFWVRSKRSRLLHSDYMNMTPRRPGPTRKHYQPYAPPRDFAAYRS

human CTLA4-human CD59 chimeric molecule with a human CD59 leader sequence and an (AS)3 linker (human), sequence (chain, as listed by the source mutant limits assumed): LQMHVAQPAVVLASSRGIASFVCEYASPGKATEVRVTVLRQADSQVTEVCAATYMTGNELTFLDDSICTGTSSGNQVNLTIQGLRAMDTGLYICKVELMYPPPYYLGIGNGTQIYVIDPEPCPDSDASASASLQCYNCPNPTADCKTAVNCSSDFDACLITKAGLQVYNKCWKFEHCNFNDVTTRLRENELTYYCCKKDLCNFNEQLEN

mean fluorescence intensity [1]: 10.2 MFI
mean fluorescence intensity [2]: 101 MFI
mean fluorescence intensity [3]: 112 MFI
mean fluorescence intensity [4]: 30.9 MFI
Substance: mouse monoclonal antibody BNI3 (Immunotech), specific for hCTLA4

IL-2 secreted from Jurkat cells co-cultured with PI-PLC treated hCTLA4-hCD59 PAEC [5]: 570 pg/mL
IL-2 secreted from Jurkat cells co-cultured with hCTLA4-hCD59 PAEC (fold decrease) [5]: 5
Substance: human CTLA4-human CD59 chimeric molecule with a human CD59 leader sequence and an (AS)3 linker

IL-2 secreted from Jurkat cells co-cultured with vector control PAEC and PHA (ELISA) [6]: 400 pg/mL
Substance: porcine CD86 (ligand)

Reference: patent US20030086940A1
